# Source: patent publication US20080221021A1, “Novel Corticotropin-Releasing Factor Receptor 1 (Crfr1) Agonist” (Max-Planck-Gesellschaft Zur Forderung Der, priority 2004, published 2008)
# Where no end group is shown, it is not given here.
# Experiments:
# rCRFR1 = target: T1, rCRFR1 (Rattus norvegicus, UniProt P35353); assay: Agonist-induced intracellular cAMP accumulation in HEK 293 cells producing rCRFR1; type: cell-based
# T1 construct: expressed in transfected cells
# T1 sequence (P35353 24-415): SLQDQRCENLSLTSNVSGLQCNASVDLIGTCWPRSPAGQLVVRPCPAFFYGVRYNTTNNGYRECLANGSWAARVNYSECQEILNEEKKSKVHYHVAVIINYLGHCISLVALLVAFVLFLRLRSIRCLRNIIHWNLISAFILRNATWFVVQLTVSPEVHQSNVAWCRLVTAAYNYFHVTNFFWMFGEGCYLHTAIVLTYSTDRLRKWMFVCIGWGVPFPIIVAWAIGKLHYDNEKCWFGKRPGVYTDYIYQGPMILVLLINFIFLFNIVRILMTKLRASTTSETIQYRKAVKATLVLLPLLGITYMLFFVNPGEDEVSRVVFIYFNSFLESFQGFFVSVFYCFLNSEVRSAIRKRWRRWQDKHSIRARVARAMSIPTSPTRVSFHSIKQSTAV
# Description: (§1) The biological potency of cortagine and OCRF was evaluated by the determination of the EC50 values for agonist-induced intracellular accumulation of cAMP in HEK 293 cells producing either rCRFR1 or mCRFR2β.
# (§2) The HEK 293 cells were plated into 24 well cell culture plates and stimulated as described (21) using increasing concentrations of the agonists under investigation. Intracellular cAMP was measured with the Biotrak™ cAMP [^125I] SPA system (Amersham Pharmacia Biotech) according to the manufacturer's product manual.
# C57BL/6J mice = assay: Elevated plus-maze test, intraseptal (i.s.) injection; type: in vivo, mouse; conditions: 100 ng into lateral septum (i.s.), 30 min before EPM, vs aCSF
# Description: Nine-week old male C57BL/6J (Centre D'Elevage Janvier, Sultzfeld, France) were individually housed in macrolon cages according to the recommendations of the Society for Laboratory Animal Science (Germany). All experiments were carried out in accordance with the European Council Directive (86/609/EEC) with the permission of the Animal Protection Law enforced by the District Government of Braunschweig, State of Lower Saxony, Germany, which is in full agreement with the APA ethical guidelines. All efforts were made to minimize animal suffering. The number of mice per group was 9-11.
# All peptides were dissolved in aCSF except for the CRFR2-selective antagonist antisauvagine-30 (aSvg-30) (20) that was initially dissolved in 10 mM aqueous acetic acid and diluted with the same volume of two-fold concentrated aCSF. The final pH of the peptide solutions was 7.4. The exact peptide concentration of the injection solutions was determined by amino acid analysis with a Beckman HPLC analyzer system 6300. […]
# The elevated plus-maze (EPM) behavior of C57BL/6J mice cannulated in the lateral ventricles or lateral intermediate septal area (23) was investigated 30 min after injection of the CRFR1 agonist under investigation for 5 min in the EPM test (24). […] The behavior of the mice was recorded by a video camera connected to a PC and analyzed by the Technical & Scientific Equipment software VIDEOMOT 2. […]
# mCRFR2β = target: T2, mCRFR2β (Mus musculus, UniProt Q60748); assay: Agonist-induced intracellular cAMP accumulation in HEK 293 cells producing mCRFR2β; type: cell-based; conditions: in words
# T2 construct: expressed in transfected cells
# T2 sequence (Q60748 1-431 isoform Q60748-2): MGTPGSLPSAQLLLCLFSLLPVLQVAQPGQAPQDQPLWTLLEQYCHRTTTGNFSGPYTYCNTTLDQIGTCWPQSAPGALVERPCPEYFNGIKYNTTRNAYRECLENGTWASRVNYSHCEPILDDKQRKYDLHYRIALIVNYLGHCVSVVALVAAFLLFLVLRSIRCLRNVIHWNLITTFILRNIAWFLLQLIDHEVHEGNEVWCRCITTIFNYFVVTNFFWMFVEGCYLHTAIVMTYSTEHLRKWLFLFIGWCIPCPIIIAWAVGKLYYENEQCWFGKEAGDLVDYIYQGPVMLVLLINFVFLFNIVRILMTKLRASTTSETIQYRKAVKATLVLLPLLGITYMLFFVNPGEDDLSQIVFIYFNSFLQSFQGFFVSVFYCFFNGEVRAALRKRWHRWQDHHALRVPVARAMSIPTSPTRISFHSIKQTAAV
# Description: as §1, §2
# [1] = type: physicochemical
# Description: A high solubility under physiological conditions is a crucial prerequisite especially for compounds to be injected into the rodent brain. […] Both peptides were soluble in a concentration range of up to 1000 μM (FIG. 6), so that there was no limitation in view of the agonist doses typically used in behavioral experiments. […] Consequently, solutions of cortagine to be used in the pharmacological assays were prepared in phosphate buffered saline (PBS; pH=7.4).
# [2] = Isoelectric point by isoelectric focusing; type: physicochemical; conditions: IEF, pH range 3-10
# Description: (§3) After dissolving the peptides in artificial cerebrospinal fluid (aCSF; 124 mM NaCl, 26.4 mM NaHCO3, 10 mM glucose, 3.3 mM KCl, 2.5 mM CaCl2 , 2.4 mM MgSO4 , 1.2 mM KH2PO4) at pH=7.4, the maximum solubility cmax was determined by amino acid analysis as described (21). The isoelectric point of the peptides was determined by isoelectric focusing (IEF) as described (21) with a Bio-Rad IEF cell system using Bio-Rad IEF strips in the pH range 3-10.
# [3] = Maximum solubility in aCSF by amino acid analysis; type: physicochemical; conditions: pH 7.4
# Description: as §3
substance,measurement,setting,value
"[Glu^21, Ala^40] [Svg^1-12]x[h/rCRF^14-30]x[Svg^30-40] (XGPPISIDLSLELLREVLEMERAEQLAQQAANNRLLLDTA; X not resolved here; ends and bridges not checked; also: Glx at position 1 not given here (Gln/Glu/pGlu)) [cortagine]",biological potency at rCRFR1,"rCRFR1; cAMP accumulation, in words",high agonistic potency and high
same,"CRFR1-selectivity over CRFR2β, EC50(mCRFR2)/EC50(rCRFR1)",rCRFR1; ratio of biological potencies (cAMP),89
same,"anxiety-like behavior (time spent in open arms, number of open arm entries)",C57BL/6J mice,not
same,biological potency at mCRFR2β compared with rCRFR1,mCRFR2β,about one to two orders of magnitude lower
same,solubility in 10 mM aqueous acetic acid,[1],insoluble
same,isoelectric point pI,[2],4.8
same,maximal solubility cmax,[3],up to 1000 μM
